In the supplement of paper PMC10126150:
± gives the standard deviation of the averaged measurements.

Tested on: ATP
Test: switch fluorescence ratio, 500 uM ATP over buffer (Cy3 cluster intensity, sum of 5 cycles each) (fold (ratio)); higher = stronger signal-on switching upon ATP binding; sequences stand for … in TCGTCGGCAGCGTCAGATGTGTATAAGAGACAGTTTTTTTTTTTTTTTTTTTTTTTTT…TC
Settings: aptamer strand: ATP DNA aptamer (quencher-CACCTGGGGGAGTATTGCGGAGGAAGG + anchor), 100 nM annealed; ATP concentration: 500 uM
Summary of the method: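 For every switch-domain sequence, the fluorescence ratio is the mean of per-cluster values, each being summed target-cycle Cy3 intensity over summed buffer-cycle Cy3 intensity. Clusters outside 100-1000 RFU were excluded. On a modified Illumina MiSeq flow-cell, the Cy3-labelled switching-strand clusters were annealed to 100 nM quencher-labelled ATP aptamer, imaged in selection buffer and then after 15 min with 500 uM ATP at 22 °C. Five such cycles were run, with NaOH stripping and re-annealing between them.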
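Note: ATP exposure 15 min at 22 °C before imaging.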

| Sequence | switch fluorescence ratio |
| --- | --- |
| TTGGCGAAGG | 0.982 ± 0.045 |
| TTGGCGCCGT | 0.998 ± 0.044 |
| TTGGCGCGGC | 1.1 ± 0.063 |
| TTGGCGCTGT | 0.971 ± 0.0017 |
| TTGGCGGGAT | 1.03 ± 0.017 |
| TTGGCGGTGG | 1.08 ± 0.26 |
| TTGGCGTCAA | 1.36 ± 0.51 |
| TTGGCTCGCA | 1.11 ± 0.15 |
| TTGGGAAAAT | 1.01 ± 0.05 |
| TTGGGAACGT | 1 ± 0.11 |
| TTGGGAAGCG | 1.001 ± 0.0093 |
| TTGGGACAAA | 1.05 ± 0.061 |
| TTGGGACGTC | 1.02 ± 0.048 |
| TTGGGACTTA | 1.01 ± 0.03 |
| TTGGGAGAAT | 1.02 ± 0.09 |
| TTGGGAGGTG | 1.05 ± 0.051 |
| TTGGGATACG | 1.18 ± 0.23 |
| TTGGGATTTT | 1.01 ± 0.033 |
| TTGGGCAGGG | 0.982 ± 0.036 |
| TTGGGCGGGG | 1.03 ± 0.043 |
| TTGGGCGGGT | 0.994 ± 0.041 |
| TTGGGCGGTG | 1.01 ± 0.018 |
| TTGGGCTATT | 1.01 ± 0.015 |
| TTGGGGAATA | 1.05 ± 0.035 |
| TTGGGGAGGA | 0.998 ± 0.044 |

| Sequence | switch fluorescence ratio |
| --- | --- |
| TTGGGGAGTA | 0.9929 ± 0.0089 |
| TTGGGGCACG | 0.99 ± 0.02 |
| TTGGGGCACT | 0.985 ± 0.016 |
| TTGGGGCGGA | 0.9923 ± 0.0095 |
| TTGGGGCGGT | 1.05 ± 0.15 |
| TTGGGGCGTG | 0.971 ± 0.057 |
| TTGGGGGCTA | 1 ± 0.04 |
| TTGGGGGTAG | 1.04 ± 0.13 |
| TTGGGGGTAT | 1.05 ± 0.068 |
| TTGGGGGTGG | 1.01 ± 0.04 |
| TTGGGGTCTG | 1.02 ± 0.023 |
| TTGGGGTGCG | 0.995 ± 0.011 |
| TTGGGGTGGC | 0.965 ± 0.061 |
| TTGGGGTGGT | 0.993 ± 0.032 |
| TTGGGGTGTC | 1.01 ± 0.021 |
| TTGGGGTTGT | 1.03 ± 0.12 |
| TTGGGGTTTT | 1.01 ± 0.037 |
| TTGGGTACGG | 1.03 ± 0.016 |
| TTGGGTAGGC | 0.985 ± 0.022 |
| TTGGGTCGAT | 0.985 ± 0.024 |
| TTGGGTCGGC | 1.0032 ± 0.001 |
| TTGGGTGCCT | 0.999 ± 0.028 |
| TTGGGTGCTT | 1.02 ± 0.041 |
| TTGGGTGGTG | 0.983 ± 0.033 |
| TTGGGTGGTT | 0.9815 ± 0.0026 |

| Sequence | switch fluorescence ratio |
| --- | --- |
| TTGGGTTGAG | 0.999 ± 0.016 |
| TTGGGTTGGG | 0.987 ± 0.018 |
| TTGGGTTTTG | 0.994 ± 0.031 |
| TTGGTAAAAA | 1.25 ± 0.41 |
| TTGGTAAAAG | 1.02 ± 0.033 |
| TTGGTAAAAT | 0.978 ± 0.041 |
| TTGGTAAAGG | 0.999 ± 0.048 |
| TTGGTATATT | 1.02 ± 0.016 |
| TTGGTCGCTG | 1.01 ± 0.011 |
| TTGGTCGTAC | 1.03 ± 0.015 |
| TTGGTCTGGG | 1.01 ± 0.064 |
| TTGGTGACCG | 1.03 ± 0.036 |
| TTGGTGAGAG | 0.997 ± 0.019 |
| TTGGTGCGGG | 0.98 ± 0.044 |
| TTGGTGGAAT | 1.06 ± 0.093 |
| TTGGTGGGGT | 1 ± 0.033 |
| TTGGTGGTT | 0.9809 ± 0.0089 |
| TTGGTGTGGG | 0.986 ± 0.045 |
| TTGGTTACAG | 0.978 ± 0.031 |
| TTGGTTAGTT | 0.981 ± 0.027 |
| TTGGTTCGC | 0.994 ± 0.094 |
| TTGGTTGGAC | 1.028 ± 0.0092 |
| TTGGTTGGCT | 1.01 ± 0.018 |
| TTGGTTGGTT | 0.978 ± 0.019 |
| TTGGTTGTTT | 1 ± 0.052 |

| Sequence | switch fluorescence ratio |
| --- | --- |
| TTGGTTTAAA | 1 ± 0.022 |
| TTGGTTTAGA | 0.979 ± 0.028 |
| TTGGTTTAGT | 1.01 ± 0.025 |
| TTGGTTTCGA | 0.98 ± 0.013 |
| TTGGTTTGGT | 0.988 ± 0.03 |
| TTGGTTTGTC | 0.99 ± 0.037 |
| TTGGTTTTCC | 1.01 ± 0.028 |
| TTGGTTTTCT | 0.994 ± 0.045 |
| TTGGTTTTTC | 1.01 ± 0.025 |
| TTGTAAATGC | 1.26 ± 0.29 |
| TTGTAACATT | 1.015 ± 0.0014 |
| TTGTAATTGC | 1.29 ± 0.34 |
| TTGTACCAAA | 0.992 ± 0.047 |
| TTGTAGACGT | 1.02 ± 0.0093 |
| TTGTAGGACC | 1 ± 0.056 |
| TTGTAGGAGC | 0.965 ± 0.14 |
| TTGTAGGGTT | 1.02 ± 0.024 |
| TTGTAGGTTT | 1.58 ± 0.79 |
| TTGTATAAGA | 1.003 ± 0.0088 |
| TTGTATATGC | 1.16 ± 0.23 |
| TTGTATGGGT | 0.98 ± 0.019 |
| TTGTATTGGA | 0.995 ± 0.015 |
| TTGTCCCTTT | 0.9848 ± 0.0074 |
| TTGTCCGCGG | 1.06 ± 0.091 |
| TTGTCGGGCC | 0.964 ± 0.039 |
